Experimental data taken from US20200317768A1 (published 2020).

T1: cynomolgus monkey FcγRIIb extracellular domain with C-terminal His-tag (cynomolgus monkey)
T1 construct: Expressed in FreeStyle 293 cells and purified; also called cyno FcγRIIb; cynoFcγRIIb; not shown: C-terminal His-tag
T1 chain: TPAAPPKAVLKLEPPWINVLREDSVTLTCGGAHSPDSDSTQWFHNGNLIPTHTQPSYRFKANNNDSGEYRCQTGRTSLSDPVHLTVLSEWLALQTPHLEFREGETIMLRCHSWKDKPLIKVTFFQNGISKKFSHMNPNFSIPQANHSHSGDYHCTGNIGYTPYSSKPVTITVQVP

T2: human FcγRIIaR extracellular domain with C-terminal His-tag (human, UniProt P12318 34-217)
T2 construct: Expressed in FreeStyle 293 cells and purified; also called human FcγRIIa (type R); FcgRIIaR; not shown: C-terminal His-tag
T2 chain: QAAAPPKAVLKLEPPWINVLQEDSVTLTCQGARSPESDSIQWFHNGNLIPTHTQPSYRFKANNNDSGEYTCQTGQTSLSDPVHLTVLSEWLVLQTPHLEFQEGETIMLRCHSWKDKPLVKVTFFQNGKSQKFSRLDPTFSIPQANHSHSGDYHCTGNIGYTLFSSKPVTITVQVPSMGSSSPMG

T3: human FcγRIIaH extracellular domain with C-terminal His-tag (human, UniProt P12318 34-217)
T3 construct: Expressed in FreeStyle 293 cells and purified; also called human FcγRIIa (type H); FcgRIIaH; not shown: C-terminal His-tag
T3 sequence: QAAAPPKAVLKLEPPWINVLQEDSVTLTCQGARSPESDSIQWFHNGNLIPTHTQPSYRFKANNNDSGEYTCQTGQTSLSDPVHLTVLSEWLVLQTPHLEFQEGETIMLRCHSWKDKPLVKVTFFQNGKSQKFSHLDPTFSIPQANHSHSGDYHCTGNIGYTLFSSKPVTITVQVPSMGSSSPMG

T4: human FcγRIIb extracellular domain with C-terminal His-tag (human, UniProt P31994 43-217)
T4 construct: Expressed in FreeStyle 293 cells and purified; also called humanFcgRIIb; not shown: C-terminal His-tag
T4 sequence: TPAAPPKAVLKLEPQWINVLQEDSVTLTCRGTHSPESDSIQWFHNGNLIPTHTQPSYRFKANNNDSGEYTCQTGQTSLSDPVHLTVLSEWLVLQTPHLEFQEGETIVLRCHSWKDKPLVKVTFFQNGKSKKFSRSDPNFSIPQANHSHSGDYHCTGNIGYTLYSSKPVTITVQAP

T5: cynomolgus monkey FcγRIIa3 extracellular domain with C-terminal His-tag (cynomolgus monkey)
T5 construct: Expressed in FreeStyle 293 cells and purified; also called cyno FcγRIIa3; cynoFcgRIIa3; not shown: C-terminal His-tag
T5 chain: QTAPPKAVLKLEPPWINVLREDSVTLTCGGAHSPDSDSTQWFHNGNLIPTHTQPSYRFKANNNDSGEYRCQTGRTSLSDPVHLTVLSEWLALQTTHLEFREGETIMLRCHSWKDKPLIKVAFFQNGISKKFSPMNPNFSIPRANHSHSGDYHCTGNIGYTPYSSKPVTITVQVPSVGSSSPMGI

T6: cynomolgus monkey FcγRIIa1 extracellular domain with C-terminal His-tag (cynomolgus monkey)
T6 construct: Expressed in FreeStyle 293 cells and purified; also called cyno FcγRIIa1; cynoFcgRIIa1; not shown: C-terminal His-tag
T6 chain: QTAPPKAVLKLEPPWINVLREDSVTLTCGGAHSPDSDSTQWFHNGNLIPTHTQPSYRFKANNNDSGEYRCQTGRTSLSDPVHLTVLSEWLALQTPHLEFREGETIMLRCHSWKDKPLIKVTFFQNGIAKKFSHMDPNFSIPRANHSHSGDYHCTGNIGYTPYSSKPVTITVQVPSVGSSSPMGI

T7: cynomolgus monkey FcγRIIIaS extracellular domain with C-terminal His-tag (cynomolgus monkey, UniProt Q8SPW2 21-206 at identity 1.00))
T7 construct: Expressed in FreeStyle 293 cells and purified; also called cyno FcγRIIIaS; cynoFcγRIIIaS; not shown: C-terminal His-tag
T7 chain: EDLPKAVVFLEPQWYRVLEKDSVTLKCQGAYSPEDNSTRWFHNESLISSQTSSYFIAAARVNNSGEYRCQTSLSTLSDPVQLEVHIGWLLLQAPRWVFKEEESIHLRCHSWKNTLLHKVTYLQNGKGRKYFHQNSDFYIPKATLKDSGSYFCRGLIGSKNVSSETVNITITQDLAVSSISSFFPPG


What was measured:
[1] = target: T1, cynomolgus monkey FcγRIIb extracellular …; assay: SPR (Biacore); KD of SG1 divided by KD of the variant for this FcgR;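 also: relative to parent M103205H795-SG1 carrying the SG1 human heavy chain constant region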
[2] = target: T2, human FcγRIIaR extracellular domain …; assay: SPR (Biacore), antibody captured on chip, FcgR extracellular domain as analyte, 25 C
[3] = target: T3, human FcγRIIaH extracellular domain …; assay: as above
[4] = target: T4, human FcγRIIb extracellular domain with …; assay: as above
[5] = target: T5, cynomolgus monkey FcγRIIa3 …; assay: as above
[6] = target: T8, human FcγRIIIaV extracellular domain with C-terminal His-tag (human, UniProt P08637 17-208); assay: as above
T8 construct: Expressed in FreeStyle 293 cells and purified; also called FcgRIIIaV; not shown: C-terminal His-tag

[7] = target: T6, cynomolgus monkey FcγRIIa1 …; assay: as above
[8] = target: T7, cynomolgus monkey FcγRIIIaS …; assay: as above

T8 sequence (P08637 17-208 F176V): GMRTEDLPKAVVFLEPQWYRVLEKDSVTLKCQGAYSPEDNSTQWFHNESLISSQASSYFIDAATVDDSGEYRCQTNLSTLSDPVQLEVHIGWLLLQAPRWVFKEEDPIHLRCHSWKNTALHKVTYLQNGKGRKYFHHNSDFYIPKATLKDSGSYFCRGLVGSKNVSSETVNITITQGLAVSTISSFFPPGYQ

| Binder | KD fold (SG1 = 1) [1] [fold] | Kd [2] [µM] | Kd [3] [µM] | Kd [4] [µM] | Kd [5] [µM] | Kd [6] [µM] | Kd [7] [µM] | Kd [8] [µM] |
| --- | --- | --- | --- | --- | --- | --- | --- | --- |
| M103205H795-MY181 / M103202L889-SK1 (antibody, human IgG1, kappa, Position 396 variant derived from MY052, expressed with M103202L889-SK1 as light chain) heavy: QVTLKESGPVLVKPTETLTLTCTVSGIDLSHDDISWVRQAPGKGLEWVGIISYAGSTYYASWAKGRLTISKDTSKNQVVLTMTNMDPVDTATYYCARGVPAYSHGGDLWGQGTLVTVSSASTKGPSVFPLAPSSKSTSGGTAALGCLVKDYFPEPVTVSWNSGALTSGVHTFPAVLQSSGLYSLSSVVTVPSSSLGTQTYICNVNHKPSNTKVDKKVEPKSCDKTHTCPPCPAPELLNGPSVFLFPPKPKDTLMISRTPEVTCVVVDVSEEDPEVKFNWYVDGVEVHNAKTKPREEQYNSTYRVVSVLTVLHQDWLNGKEYKCKVSNKALPAPIEKTISKAKGQPREPQVYTLPPSREEMTKNQVSLTCLVKGFYPSDIAVEWESNGQPENNYKTTPTVLDSDGSFFLYSKLTVDKSRWQQGNVFSCSVMHEALHNHYTQKSLSLSP light: DIVMTQSPATLSLSPGERATLSCTSSQSVYHANWLSWFQQKPGQPPKLLIYWASTLAYGVPSRFSGSGSGTDFTLTISSLQPEDAATYYCAGGYGGGRYAFGQGTKVEIKRTVAAPSVFIFPPSDEQLKSGTASVVCLLNNFYPREAKVQWKVDNALQSGNSQESVTEQDSKDSTYSLSSTLTLSKADYEKHKVYACEVTHQGLSSPVTKSFNRGEC | 1.8 | 2.5 | 1.3 | 14 | 9.2 | 7.3 | 2.3 | 4.1 |
| M103205H795-MY184 / M103202L889-SK1 (antibody, human IgG1, kappa, Position 396 variant derived from MY052, expressed with M103202L889-SK1 as light chain) heavy: QVTLKESGPVLVKPTETLTLTCTVSGIDLSHDDISWVRQAPGKGLEWVGIISYAGSTYYASWAKGRLTISKDTSKNQVVLTMTNMDPVDTATYYCARGVPAYSHGGDLWGQGTLVTVSSASTKGPSVFPLAPSSKSTSGGTAALGCLVKDYFPEPVTVSWNSGALTSGVHTFPAVLQSSGLYSLSSVVTVPSSSLGTQTYICNVNHKPSNTKVDKKVEPKSCDKTHTCPPCPAPELLNGPSVFLFPPKPKDTLMISRTPEVTCVVVDVSEEDPEVKFNWYVDGVEVHNAKTKPREEQYNSTYRVVSVLTVLHQDWLNGKEYKCKVSNKALPAPIEKTISKAKGQPREPQVYTLPPSREEMTKNQVSLTCLVKGFYPSDIAVEWESNGQPENNYKTTPYVLDSDGSFFLYSKLTVDKSRWQQGNVFSCSVMHEALHNHYTQKSLSLSP light: DIVMTQSPATLSLSPGERATLSCTSSQSVYHANWLSWFQQKPGQPPKLLIYWASTLAYGVPSRFSGSGSGTDFTLTISSLQPEDAATYYCAGGYGGGRYAFGQGTKVEIKRTVAAPSVFIFPPSDEQLKSGTASVVCLLNNFYPREAKVQWKVDNALQSGNSQESVTEQDSKDSTYSLSSTLTLSKADYEKHKVYACEVTHQGLSSPVTKSFNRGEC | 2 | 2 | 1.1 | 1.1 | 8.4 | 6.8 | 1.9 | 3.3 |

Continued by falling Kd [2], values first:

| KD fold (SG1 = 1) [1] [fold] | Kd [2] [µM] | Kd [3] [µM] | Kd [4] [µM] | Kd [5] [µM] | Kd [6] [µM] | Kd [7] [µM] | Kd [8] [µM] | Binder |
| --- | --- | --- | --- | --- | --- | --- | --- | --- |
| 1.9 | 2.1 | 1.2 | 1.1 | 8.4 | 7.2 | 2.1 | 3.5 | M103205H795-MY183 / M103202L889-SK1 (antibody, human IgG1, kappa, Position 396 variant derived from MY052, expressed with M103202L889-SK1 as light chain) heavy: QVTLKESGPVLVKPTETLTLTCTVSGIDLSHDDISWVRQAPGKGLEWVGIISYAGSTYYASWAKGRLTISKDTSKNQVVLTMTNMDPVDTATYYCARGVPAYSHGGDLWGQGTLVTVSSASTKGPSVFPLAPSSKSTSGGTAALGCLVKDYFPEPVTVSWNSGALTSGVHTFPAVLQSSGLYSLSSVVTVPSSSLGTQTYICNVNHKPSNTKVDKKVEPKSCDKTHTCPPCPAPELLNGPSVFLFPPKPKDTLMISRTPEVTCVVVDVSEEDPEVKFNWYVDGVEVHNAKTKPREEQYNSTYRVVSVLTVLHQDWLNGKEYKCKVSNKALPAPIEKTISKAKGQPREPQVYTLPPSREEMTKNQVSLTCLVKGFYPSDIAVEWESNGQPENNYKTTPWVLDSDGSFFLYSKLTVDKSRWQQGNVFSCSVMHEALHNHYTQKSLSLSP light: DIVMTQSPATLSLSPGERATLSCTSSQSVYHANWLSWFQQKPGQPPKLLIYWASTLAYGVPSRFSGSGSGTDFTLTISSLQPEDAATYYCAGGYGGGRYAFGQGTKVEIKRTVAAPSVFIFPPSDEQLKSGTASVVCLLNNFYPREAKVQWKVDNALQSGNSQESVTEQDSKDSTYSLSSTLTLSKADYEKHKVYACEVTHQGLSSPVTKSFNRGEC |
| 1.9 | 2.1 | 1.3 | 1.2 | 7.8 | 7 | 2.1 | 3.5 | M103205H795-MY182 / M103202L889-SK1 (antibody, human IgG1, kappa, Position 396 variant derived from MY052, expressed with M103202L889-SK1 as light chain) heavy: QVTLKESGPVLVKPTETLTLTCTVSGIDLSHDDISWVRQAPGKGLEWVGIISYAGSTYYASWAKGRLTISKDTSKNQVVLTMTNMDPVDTATYYCARGVPAYSHGGDLWGQGTLVTVSSASTKGPSVFPLAPSSKSTSGGTAALGCLVKDYFPEPVTVSWNSGALTSGVHTFPAVLQSSGLYSLSSVVTVPSSSLGTQTYICNVNHKPSNTKVDKKVEPKSCDKTHTCPPCPAPELLNGPSVFLFPPKPKDTLMISRTPEVTCVVVDVSEEDPEVKFNWYVDGVEVHNAKTKPREEQYNSTYRVVSVLTVLHQDWLNGKEYKCKVSNKALPAPIEKTISKAKGQPREPQVYTLPPSREEMTKNQVSLTCLVKGFYPSDIAVEWESNGQPENNYKTTPVVLDSDGSFFLYSKLTVDKSRWQQGNVFSCSVMHEALHNHYTQKSLSLSP light: DIVMTQSPATLSLSPGERATLSCTSSQSVYHANWLSWFQQKPGQPPKLLIYWASTLAYGVPSRFSGSGSGTDFTLTISSLQPEDAATYYCAGGYGGGRYAFGQGTKVEIKRTVAAPSVFIFPPSDEQLKSGTASVVCLLNNFYPREAKVQWKVDNALQSGNSQESVTEQDSKDSTYSLSSTLTLSKADYEKHKVYACEVTHQGLSSPVTKSFNRGEC |
